# Measured values taken from PMC4890538 (Angewandte Chemie (International ed. in English), 2015).
# T1: IL17-F (Interleukin member of the highly homologous IL-17 family) (UniProt Q96PD4 31-163)
# T1 sequence (looked up): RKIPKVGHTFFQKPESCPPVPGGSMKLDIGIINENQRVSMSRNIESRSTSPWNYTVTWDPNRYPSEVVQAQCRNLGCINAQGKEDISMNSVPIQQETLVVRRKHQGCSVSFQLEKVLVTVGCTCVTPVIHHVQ
# Assays:
# [1] = target: L1R, vaccinia virus L1R myristyl protein (vaccinia virus, UniProt P07612 1-250)
# [2] = target: T1, IL17-F (Interleukin member of the …)
# [3] = target: p-Akt2 (phospho serine / threonine kinase) (UniProt P31751 1-481)
binder,measurement,setting,value
DARNI [Cy(DARNI-click)],EC50,[1],875 nM
RRATS [Cy(RRATS-click)],EC50,[2],66 nM
YYTYT [Cy(YYTYT-click)],EC50,[3],122 nM
